Measurements published in patent publication US9533026B2, “Polypeptide compounds for inhibiting angiogenesis and tumor growth” (VasGene Therapeutics, Inc., priority 2004, dated 2017).
Like-named read-outs stand apart in the source and are kept apart here.

B1: B4ECv3: soluble extracellular domain derivative of human EphB4, SEQ ID NO:1 (protein)
chain: MELRVLLCWASLAAALEETLLNTKLETADLKWVTFPQVDGQWEELSGLDEEQHSVRTYEVCEVQRAPGQAHWLRTGWVPRRGAVHVYATLRFTMLECLSLPRAGRSCKETFTVFYYESDADTATALTPAWMENPYIKVDTVAAEHLTRKRPGAEATGKVNVKTLRLGPLSKAGFYLAFQDQGACMALLSLHLFYKKCAQLTVNLTRFPETVPRELVVPVAGSCVVDAVPAPGPSPSLYCREDGQWAEQPVTGCSCAPGFEAAEGNTKCRACAQGTFKPLSGEGSCQPCPANSHSNTIGSAVCQCRVGYFRARTDPRGAPCTTPPSAPRSVVSRLNGSSLHLEWSAPLESGGREDLTYALRCRECRPGGSCAPCGGDLTFDPGPRDLVEPWVVVRGLRPDFTYTFEVTALNGVSSLATGPVPFEPVNVTTDREVPPAVSDIRVTRSSPSSLSLAWAVPRAPSGAWLDYEVKYHEKGAEGPSSVRFLKTSENRAELRGLKRGASYLVQVRARSEAGYGPFGQEHHSQTQLDESEGWREQGSKRAILQIEGKPIPNPLLGLDSTRTGHHHHHH
modifications: Recombinant B4ECv3 protein
B2: soluble EphB4: soluble EphB4 extracellular domain protein; exact construct not stated at the results (protein)
chain: LEETLLNTKLETADLKWVTFPQVDGQWEELSGLDEEQHSVRTYEVCDVQRAPGQAHWLRTGWVPRRGAVHVYATLRFTMLECLSLPRAGRSCKETFTVFYYESDADTATALTPAWMENPYIKVDTVAAEHLTRKRPGAEATGKVNVKTLRLGPLSKAGFYLAFQDQGACMALLSLHLFYKKCAQLTVNLTRFPETVPRELVVPVAGSCVVDAVPAPGPSPSLYCREDGQWAEQPVTGCSCAPGFEAAEGNTKCRACAQGTFKPLSGEGSCQPCPANSHSNTIGSAVCQCRVGYFRARTDPRGAPCTTPPSAPRSVVSRLNGSSLHLEWSAPLESGGREDLTYALRCRECRPGGSCAPCGGDLTFDPGPRDLVEPWVVVRGLRPDFTYTFEVTALNGVSSLATGPVPFEPVNVTTDREVPPAVSDIRVTRSSPSSLSLAWAVPRAPSGAVLDYEVKYHEKGAEGPSSVRFLKTSENRAELRGLKRGASYLVQVRARSEAGYGPFGQEHHSQTQLDESEGWREQLA

Tests used:
HUVEC = assay: Endothelial cell tube (cord) formation on Matrigel; format: cell-based, human
Protocol: (§1) Cord formation assay of HUVEC in Matrigel™ (upper row). Cells in exponential growth phase were treated overnight with the indicated concentrations of EphB4 extracellular domain (ECD) prior to plating on Matrigel™. Cells were trypsinized and plated (1×10^5 cells/well) in a 24-well plate containing 0.5 ml Matrigel™. Shown are representative 20× phase contrast fields of cord formation after 8 hr plating on Matrigel™ in the continued presence of the test compounds as shown. Original magnification 200×. KS-SLK cells treated in a similar manner (middle row) in a cord formation assay on Matrigel™. […] After 7 days the plugs were removed, sectioned and stained with H&E to visualize cells migrating into the matrix.
Matrigel (60 μl of 10 mg/ml; Collaborative Lab #35423) is placed in each well of an ice-cold 96-well plate. The plate is allowed to sit at room temperature for 15 minutes then incubated at 37° C. for 30 minutes to permit the matrigel to polymerize. In the mean time, HUVECs are prepared in EGM-2 (Clonetic #CC3162) at a concentration of 2×10^5 cells/ml. The test compound is prepared at 2× the desired concentration (5 concentration levels) in the same medium. Cells (500 μl) and 2× drug (500 μl) is mixed and 200 μl of this suspension are placed in duplicate on the polymerized matrigel. After 24 h incubation, triplicate pictures are taken for each concentration using a Bioquant Image Analysis system. Drug effect (IC50) is assessed compared to untreated controls by measuring the length of cords formed and number of junctions.
Matrigel (60 μl of 10 mg/ml; Collaborative Lab, Cat. No. 35423) was placed in each well of an ice-cold 96-well plate. The plate was allowed to sit at room temperature for 15 minutes then incubated at 37° C. for 30 minutes to permit Matrigel to polymerize. In the mean time, human umbilical vein endothelial cells were prepared in EGM-2 (Clonetic, Cat. No. CC3162) at a concentration of 2×10^5 cells/ml. The test protein was prepared at 2× the desired concentration (5 concentration levels) in the same medium. Cells (500 μl) and 2× protein (500 μl) were mixed and 200 μl of this suspension were placed in duplicate on the polymerized Matrigel. After 24 h incubation, triplicate pictures were taken for each concentration using a Bioquant Image Analysis system. Protein addition effect (IC50) was assessed compared to untreated controls by measuring the length of cords formed and number of junctions.

[1] = test system: bFGF-induced corneal neovascularization; assay: Mouse corneal micropocket assay; format: in vivo; details: mouse cornea, day 7 of implantation
Excerpt: To further investigate the antiangiogenic activity of soluble EphB4 in vivo, we studied the inhibitory effect of administration of soluble EphB4 on neovascularization in the mouse cornea induced by bFGF. Hydron Pellets implanted into corneal micropocket could induce angiogenesis, in the presence of growth factors, in a typically avascular area. The angiogenesis response in mice cornea was moderate, the appearance of vascular buds was delayed and the new capillaries were sparse and grew slowly.
Mouse corneal micropocket assay was performed according to that detailed by Kenyon et al., 1996. Briefly, hydron pellets (polyhydroxyethylmethacrylate [polyHEMA], Interferon Sciences, New Brunswick, N.J., U.S.A.) containing either 90 ng of bFGF (R&D) or 180 ng of VEGF (R&D Systems, Minneapolis, Minn., U.S.A.) and 40 μg of sucrose aluminium sulfate (Sigma) were prepared. Using an operating microscope, a stromal linear keratotomy was made with a surgical blade (Bard-Parker no. 15) parallel to the insertion of the lateral rectus muscle in an anesthetized animal. An intrastromal micropocket was dissected using a modified von Graefe knife (2^••30 mm). […] The difference in pellet location for each growth factor was determined to be necessary given the relatively weaker angiogenic stimulation of VEGF in this model. […]

MCF-7 (breast carcinoma) = assay: MCF-7 tumor in mice, soluble EphB4; format: in vivo, mouse
Protocol: Tumors were injected premixed with Matrigel plus growth factors and soluble EphB4 subcutaneously. After 10 to 14 days, the mice were injected intravenously with FITC-lectin (green) to assess blood vessel perfusion.

HUVECS = assay: MTS cytotoxicity assay; format: cell-based, human
HNSCC-15 cells = assay: Cell cycle FACS of HNSCC cells with soluble EphB4ECD; format: cell-based, human
KS-SLK cells = assay: KS-SLK cord formation on Matrigel; format: cell-based, human
Protocol: as §1

EphB4 receptor = EphB4 receptor phosphorylation in HUVECs (Western blot); format: cell-based, human; details: serum-starved HUVECs, in the presence of EphrinB2Fc
Excerpt: We examined EphB4 receptor phosphorylation in HUVECs by performing Western blot analyses with lysates from soluble EphB4-treated cells and antibodies against phosphor-tyrosine. […] Ephrin B2Fc without the soluble EphB4 protein induced phosphorylation of EphB4 receptor (FIG. 22).

SCC15 tumors = assay: SCC15 tumor growth and histology in nude mice, soluble EphB4; format: in vivo, mouse; details: treated vs control tumors, CD31

Row | Molecule | endothelial cell tube / tubule / cord formation (HUVEC) | endothelial cell tube / tubule / cord formation (HUVEC; listed as B4v3) | corneal neovascularization induced by bFGF [1] | in vivo tumor growth (MCF-7 (breast carcinoma); MCF-7 co-injected with matrigel and growth factors) | cytotoxic effect (HUVECS) | cell cycle distribution (HNSCC-15 cells) | endothelial cell tube / tubule / cord formation (HUVEC; listed as EphB4-ECD) | cord formation (KS-SLK cells) | level of phosphorylated EphB4 (EphB4 receptor) | tumor angiogenesis (MCF-7 (breast carcinoma); MCF-7, premixed with Matrigel plus growth factors, 10 to 14 days) | Microvessel density in the outer viable rim of tumor cells (SCC15 tumors)
1 | B1 | inhibition | strong inhibition | inhibits | inhibits | – | – | – | – | – | – | –
2 | B2 | significantly inhibited | – | markedly inhibited | – | no detectable cytotoxic effect | accumulation in subG0/G1 and S/G2 phases | inhibits | inhibits | rapid and transient decrease | marked inhibition | similar
